First the molecules themselves.
B1: SELP47K-3: SELP variant, 3 subunits, no lysine substitution (SEQ ID NO:27) (protein)
chain: MDPVVLQRRDWENPGVTQLNRLAAHPPFASDPMGAGSGAGAGSGVGVPGVGVPGVGVPGVGVPGKGVPGVGVPGVGVPGVGVPGAGAGSGAGAGSGAGAGSGAGAGSGVGVPGVGVPGVGVPGVGVPGKGVPGVGVPGVGVPGVGVPGAGAGSGAGAGSGAGAGSGAGAGSGVGVPGVGVPGVGVPGVGVPGKGVPGVGVPGVGVPGVGVPGAGAGSGAGAGSGAGAMDPGRYQDLRSHHHHHH
modifications: SELP-47K-3
B2: SELP67K: SELP variant, 13 subunits (SEQ ID NO:30) (protein)
chain: MDPVVLQRRDWENPGVTQLNRLAAHPPFASDPMGVGVPGVGVPGVGVPGVGVPGKGVPGVGVPGVGVPGVGVPGAGAGSGAGAGSGAGAGSGAGAGSGAGAGSGAGAGSGVGVPGVGVPGVGVPGVGVPGKGVPGVGVPGVGVPGVGVPGAGAGSGAGAGSGAGAGSGAGAGSGAGAGSGAGAGSGVGVPGVGVPGVGVPGVGVPGKGVPGVGVPGVGVPGVGVPGAGAGSGAGAGSGAGAGSGAGAGSGAGAGSGAGAGSGVGVPGVGVPGVGVPGVGVPGKGVPGVGVPGVGVPGVGVPGAGAGSGAGAGSGAGAGSGAGAGSGAGAGSGAGAGSGVGVPGVGVPGVGVPGVGVPGKGVPGVGVPGVGVPGVGVPGAGAGSGAGAGSGAGAGSGAGAGSGAGAGSGAGAGSGVGVPGVGVPGVGVPGVGVPGKGVPGVGVPGVGVPGVGVPGAGAGSGAGAGSGAGAGSGAGAGSGAGAGSGAGAGSGVGVPGVGVPGVGVPGVGVPGKGVPGVGVPGVGVPGVGVPGAGAGSGAGAGSGAGAGSGAGAGSGAGAGSGAGAGSGVGVPGVGVPGVGVPGVGVPGKGVPGVGVPGVGVPGVGVPGAGAGSGAGAGSGAGAGSGAGAGSGAGAGSGAGAGSGVGVPGVGVPGVGVPGVGVPGKGVPGVGVPGVGVPGVGVPGAGAGSGAGAGSGAGAGSGAGAGSGAGAGSGAGAGSGVGVPGVGVPGVGVPGVGVPGKGVPGVGVPGVGVPGVGVPGAGAGSGAGAGSGAGAGSGAGAGSGAGAGSGAGAGSGVGVPGVGVPGVGVPGVGVPGKGVPGVGVPGVGVPGVGVPGAGAGSGAGAGSGAGAGSGAGAGSGAGAGSGAGAGSGVGVPGVGVPGVGVPGVGVPGKGVPGVGVPGVGVPGVGVPGAGAGSGAGAGSGAGAGSGAGAGSGAGAGSGAGAGSGVGVPGVGVPGVGVPGVGVPGKGVPGVGVPGVGVPGVGVPGAGAGSGAGAGSGAGAGSGAGAGSGAGAGSGAGAGSMDPGRYQDLRSHHHHHH
modifications: SELP 67K
B3: SELP47E: SELP variant, 13 subunits, lysine substituted by glutamic acid (protein)
chain: MDPVVLQRRDWENPGVTQLNRLAAHPPFASDPMGAGSGAGAGSGVGVPGVGVPGVGVPGVGVPGEGVPGVGVPGVGEPGVGVPGAGAGSGAGAGSGAGAGSGAGAGSGVGVPGVGVPGVGVPGVGVPGEGVPGVGVPGVGEPGVGVPGAGAGSGAGAGSGAGAGSGAGAGSGVGVPGVGVPGVGVPGVGVPGEGVPGVGVPGVGEPGVGVPGAGAGSGAGAGSGAGAGSGAGAGSGVGVPGVGVPGVGVPGVGVPGEGVPGVGVPGVGEPGVGVPGAGAGSGAGAGSGAGAGSGAGAGSGVGVPGVGVPGVGVPGVGVPGEGVPGVGVPGVGEPGVGVPGAGAGSGAGAGSGAGAGSGAGAGSGVGVPGVGVPGVGVPGVGVPGEGVPGVGVPGVGEPGVGVPGAGAGSGAGAGSGAGAGSGAGAGSGVGVPGVGVPGVGVPGVGVPGEGVPGVGVPGVGEPGVGVPGAGAGSGAGAGSGAGAGSGAGAGSGVGVPGVGVPGVGVPGVGVPGEGVPGVGVPGVGEPGVGVPGAGAGSGAGAGSGAGAGSGAGAGSGVGVPGVGVPGVGVPGVGVPGEGVPGVGVPGVGEPGVGVPGAGAGSGAGAGSGAGAGSGAGAGSGVGVPGVGVPGVGVPGVGVPGEGVPGVGVPGVGEPGVGVPGAGAGSGAGAGSGAGAGSGAGAGSGVGVPGVGVPGVGVPGVGVPGEGVPGVGVPGVGEPGVGVPGAGAGSGAGAGSGAGAGSGAGAGSGVGVPGVGVPGVGVPGVGVPGEGVPGVGVPGVGEPGVGVPGAGAGSGAGAGSGAGAGSGAGAGSGVGVPGVGVPGVGVPGVGVPGEGVPGVGVPGVGEPGVGVPGAGAGSGAGAGSGAGAMDPGRYQDLRSHHHHHH
modifications: SELP 47E-13
notes: SELP variant, 13 subunits, lysine substituted by glutamic acid
B4: SELP47E-3: SELP variant, 3 subunits, lysine substituted by glutamic acid (SEQ ID NO:28) (protein)
chain: MDPVVLQRRDWENPGVTQLNRLAAHPPFASDPMGAGAGSGAGAGSGVGVPGVGVPGVGVPGVGVPGEGVPGVGVPGVGVPGVGVPGAGAGSGAGAGSGAGAGSGAGAGSGVGVPGVGVPGVGVPGVGVPGEGVPGVGVPGVGVPGVGVPGAGAGSGAGAGSGAGAGSGAGAGSGVGVPGVGVPGVGVPGVGVPGEGVPGVGVPGVGVPGVGVPGAGAGSGAGAGSGAGAMDPGRYQDLRSHHHHHH
modifications: SELP 47E-3
B5: SELP47R-3: SELP variant, 3 subunits, lysine substituted by arginine (SEQ ID NO:26) (protein)
chain: MPPVVLQRRDWENPGVTQLNRLAAHPPFASDPMGAGAGSGAGAGSGVGVPGVGVPGVGVPGVGVPGRGVPGVGVPGVGVPGVGVPGAGAGSGAGAGSGAGAGSGAGAGSGVGVPGVGVPGVGVPGVGVPGRGVPGVGVPGVGVPGVGVPGAGAGSGAGAGSGAGAGSGAGAGSGVGVPGVGVPGVGVPGVGVPGRGVPGVGVPGVGVPGVGVPGAGAGSGAGAGSGAGAMDPGRYQDLRSHHHHHH
modifications: SELP 47R-3
B6: SELP58: SELP variant, 13 subunits (SEQ ID NO:31) (protein)
chain: MDPVVLQRRDWENPGVTQLNRLAAHPPFASDPMGVGVPGVGVPGVGVPGVGVPGVGVPGVGVPGVGVPGVGVPGAGAGSGAGAGSGAGAGSGAGAGSGAGAGSGVGVPGVGVPGVGVPGVGVPGVGVPGVGVPGVGVPGVGVPGAGAGSGAGAGSGAGAGSGAGAGSGAGAGSGVGVPGVGVPGVGVPGVGVPGVGVPGVGVPGVGVPGVGVPGAGAGSGAGAGSGAGAGSGAGAGSGAGAGSGVGVPGVGVPGVGVPGVGVPGVGVPGVGVPGVGVPGVGVPGAGAGSGAGAGSGAGAGSGAGAGSGAGAGSGVGVPGVGVPGVGVPGVGVPGVGVPGVGVPGVGVPGVGVPGAGAGSGAGAGSGAGAGSGAGAGSGAGAGSGVGVPGVGVPGVGVPGVGVPGVGVPGVGVPGVGVPGVGVPGAGAGSGAGAGSGAGAGSGAGAGSGAGAGSGVGVPGVGVPGVGVPGVGVPGVGVPGVGVPGVGVPGVGVPGAGAGSGAGAGSGAGAGSGAGAGSGAGAGSGVGVPGVGVPGVGVPGVGVPGVGVPGVGVPGVGVPGVGVPGAGAGSGAGAGSGAGAGSGAGAGSGAGAGSGVGVPGVGVPGVGVPGVGVPGVGVPGVGVPGVGVPGVGVPGAGAGSGAGAGSGAGAGSGAGAGSGAGAGSGVGVPGVGVPGVGVPGVGVPGVGVPGVGVPGVGVPGVGVPGAGAGSGAGAGSGAGAGSGAGAGSGAGAGSGVGVPGVGVPGVGVPGVGVPGVGVPGVGVPGVGVPGVGVPGAGAGSGAGAGSGAGAGSGAGAGSGAGAGSGVGVPGVGVPGVGVPGVGVPGVGVPGVGVPGVGVPGVGVPGAGAGSGAGAGSGAGAGSGAGAGSGAGAGSGVGVPGVGVPGVGVPGVGVPGVGVPGVGVPGVGVPGVGVPGAGAGSGAGAGSGAGAGSGAGAGSGAGAGSMDPGRYQLSAGRYHYQLVWCQK
modifications: SELP 58

The nature of the data set: Isoelectric point determination (IEF gel). Particulars: SELP variants, Table 2. It counts as physicochemical. The method, then: In this Example, experiments performed to determine the isoelectric point and cloud point of SELP47K (Example 1) are described. The isoelectric point of SELP47K was determined by electrophoresing 5 mg/ml SELP47K solution using Isoelectric Focusing Electrophoresis (IEF) gel and Novex electrophoresis apparatus along with protein standards markers.
In the case of B1, the “Isoelectric Point” value was found to be 9.52.

For B2, the “Isoelectric Point” value came to 10.53.

On to B3, for which the “Isoelectric Point” value amounted to 4.16.

Regarding B4, the “Isoelectric Point” value is listed as 5.9.

Regarding B5, the “Isoelectric Point” value worked out at 10.5.

As for B6, the “Isoelectric Point” value is on record as 6.7.

The values above are taken from patent publication US20130059772A1, “Use of Repeat Sequence Protein Polymers in Personal Care Compositions” (DANISCO US INC., priority 2003, published 2013).
